# Source: patent publication US20260185102A1, “LIGAND-BINDING NUCLEIC ACID COMPLEX” (RENA THERAPEUTICS INC., priority 2021, published 2026)
# In the oligonucleotide strings, read from the 5' end, every base follows the letter of its sugar. An asterisk marks phosphorothioate; unmarked linkages are phosphodiester. Other units and linkages are bracketed, terminal groups are in braces. A string of capitals states the bases alone. Where no end group is shown, it is not given here. [ ]: non-standard residue; d: D form. {L001} = PTH1 ligand L001 attached via a dibenzocyclooctyne-succinyl-hexylamino linker; l = locked nucleic acid (LNA); [5mC] = 5-methylcytosine; Aib = CC(C)(N)C(=O)O; d = 2'-deoxy (DNA); m = 2'-O-methyl; r = 2'-OH (RNA)
# T1: mouse Pth1R (mPth1R), stably expressed on NIH/3T3 cells (mouse, UniProt P41593 27-591)
# T1 sequence (looked up): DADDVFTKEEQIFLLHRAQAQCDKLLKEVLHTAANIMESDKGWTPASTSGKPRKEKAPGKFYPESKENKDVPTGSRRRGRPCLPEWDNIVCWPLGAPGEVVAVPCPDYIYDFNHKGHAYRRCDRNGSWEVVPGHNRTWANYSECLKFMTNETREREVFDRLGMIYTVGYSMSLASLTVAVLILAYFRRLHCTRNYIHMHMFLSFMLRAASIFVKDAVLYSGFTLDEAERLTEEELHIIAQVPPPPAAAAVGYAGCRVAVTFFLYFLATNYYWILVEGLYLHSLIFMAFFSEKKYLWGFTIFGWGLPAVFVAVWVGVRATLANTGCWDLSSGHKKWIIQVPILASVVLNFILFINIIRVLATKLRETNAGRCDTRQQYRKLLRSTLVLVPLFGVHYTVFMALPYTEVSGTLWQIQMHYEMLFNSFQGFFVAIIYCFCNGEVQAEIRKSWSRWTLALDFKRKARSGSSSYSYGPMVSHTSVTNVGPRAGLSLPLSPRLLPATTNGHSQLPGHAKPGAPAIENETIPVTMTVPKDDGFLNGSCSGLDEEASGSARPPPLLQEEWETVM
# B1: L005-HDO6 (peptide)
# peptide: HQLLHDKGKSIQDLRRRELLEKLLAKLHKA
# modifications: not fully specified (residue 29); printed as HQLLHDKGKSIQDLRRRELLEKLLAKLH(K-PEG3-Unit)A
# B2: L010-HDO6 (peptide)
# peptide: DKGKSIQDLRRRELLEKLLAKLHKA
# modifications: not fully specified (residue 24); printed as DKGKSIQDLRRRELLEKLLAKLH(K-PEG3-Unit)A
# Assays:
# mouse Malat1 ncRNA [1] = experiment: Malat1 ncRNA expression in mouse kidney after intravenous or subcutaneous PTH1 ligand-HDO (Example 5); assay type: in vivo; conditions: intravenous, 1 μmol/kg
# Procedure: The nucleic acid complexes used in Example 5 are each a conjugate of 16-mer HDO or ASO targeting mouse Malat1 ncRNA prepared in the example above and the PTH1 ligand. The present inventors adjusted the oligo complex with physiological saline (Otsuka Pharmaceutical Co., Ltd.), the oligo complex for animal evaluation was denatured in a block bath (CDB-105, AS ONE Corporation), and the double-stranded HDO for cell evaluation was subjected to an annealing procedure comprising denaturing at 90° C. for 10 minutes and then naturally cooling to room temperature over a period of about 2 hours in a T100 thermal cycler (Bio-Rad). […]
# For mRNA extraction, tissue was fractured by bead crushing using a TissueLyser II (QIAGEN). Total RNA was extracted from the solution containing fractured tissue using the ReliaPrep™ RNA Tissue Miniprep System (Promega Corporation). cDNA was prepared from total RNA by reverse transcription using the PrimeScript™ RT Master Mix (TaKaRa). mRNA expression of each gene was measured using the real-time PCR system (StepOnePlus, Applied Biosystems). […]
# All the measured values were indicated in terms of “mean±standard deviation.” Statistical analysis was performed using GraphPad Prism 9.4.0. […]
# mouse Malat1 ncRNA [2] = experiment: mMalat1 ncRNA expression in mouse liver and kidney after intravenous L001-HDO6 (Example 3); assay type: in vivo; conditions: c57BL/6J mice, 1 μmol/kg intravenous, Day 3; compared with vehicle and L001 complementary strand groups
# Procedure: The nucleic acid complex used in Example 3 is L001-HDO6, which is a conjugate of 16-mer HDO targeting mouse Malat1 ncRNA prepared in Example 2 and the L001 ligand. The present inventors adjusted the oligo complex to 100 μM with physiological saline (Otsuka Pharmaceutical Co., Ltd.), and double-stranded HDO was subjected to an annealing procedure comprising denaturing at 90° C. for 5 minutes and then naturally cooling to room temperature over a period of about 2 hours in a block bath (CDB-105, AS ONE Corporation).
# Species differences in the PTH1 receptor, PTH, and PTHrP are insignificant between humans and mice. […]
# Method Mice were divided into groups depending on body weights: the vehicle (saline, Otsuka Pharmaceutical Co., Ltd.) administration group; the L001 complementary strand (1 μmol/kg) administration group; and the L001-HDO6 (1 μmol/kg) administration group (each group consisting of 5 mice (n=5)). […] On the day of autopsy, body weight of each mouse was measured, a blood sample was taken from the heart under anesthesia with isoflurane (introduced at 3% to 5%, maintained at 1% to 3%) (Terumo syringe SS-01P2525, containing the anticoagulant heparin), and mice were euthanized by exsanguination. […]
# All the measured values were indicated in terms of “mean±standard deviation.” For statistical analysis, the one-way analysis of variance (ANOVA) was performed using GraphPad Prism 7.04. […]
# [3] = Tm of ligand-bound HDO6 duplex; assay type: physicochemical; conditions: HDO6 with ligand introduced into complementary strand
# [4] = Intrarenal distribution, immunostained kidney images after L001-HDO6-Alexa488 (Example 4); assay type: in vivo, mouse; conditions: 1 μmol/kg, c57BL/6J mice
# Procedure: The fluorescence-labeled ASO comprising Alexa488 bound to the 5′ terminus of the antisense strand (SEQ ID NO: 179) prepared in Example 2 was annealed to the L001 complementary strand (SEQ ID NO: 180) by the method described in Example 2 to form a duplex complex. Thus, the fluorescence-labeled HDO (L001-HDO6-Alexa488) was prepared.
# The immunohistochemical test was performed with the use of c57BL/6J mice (12 mice). The fluorescence-labeled HDO (L001-HDO6-Alexa488) was intravenously administered to mice at […] once, a blood sample was taken from the heart under anesthesia with isoflurane 10 minutes, 6 hours, 24 hours, and 72 hours later, the kidney was perfused by left ventricular cannulation with 10 ml of saline followed by 10 ml of 4% paraformaldehyde solution, and the kidney was extracted from the mice. The extracted kidney was soaked in 4% paraformaldehyde to prepare frozen sections. The frozen sections were stained with Nephrin (the primary antibody: mouse Nephrin affinity purified polyclonal antibody, Goat IgG (AF3459), R&D Systems) and Alexa Fluor 594 (the secondary antibody: chicken anti-goat IgG (H+L) (A-21468), Invitrogen) to observe the renal glomerulus, and the frozen sections were stained with a DAPI (4′,6-diamidino-2-phenylindole) solution to observe the DNA-containing cell nuclei. The fluorescent images of the pathological sections were incorporated with the use of the Olympus VS120 Slide Scanning System.
# The photograph in the lower right is an image obtained by superposing the aforementioned 3 photographs superposed on top of each other (merged).
# [5] = target: T1, mouse Pth1R (mPth1R), stably expressed …; experiment: cell-based or functional assay
# [6] = 10 minutes after single intravenous administration
molecule,measurement,setting,value
"L001-HDO6: HDO targeting mouse Malat1 ncRNA: antisense strand SEQ ID NO: 179, complementary strand SEQ ID NO: 180 bound to PTH1 ligand L001 (antisense l[5mC]*lT*lA*dG*dT*dT*dC*dA*dC*dT*dG*dA*dA*lT*lG*l[5mC]; sense {L001}-mG*mC*mA*rUrUrCrArGrUrGrArArC*mU*mA*mG)",Malat1 ncRNA expression in the kidney,"mouse Malat1 ncRNA [1]; Day 3, compared with the saline administration group",lowered to a statistically significant extent
same,Malat1 ncRNA expression in the kidney,"mouse Malat1 ncRNA [1]; Day 3, in comparison with HDO without ligand",lowered to a statistically significant extent
same,mMalat1 ncRNA expression level in the kidney,mouse Malat1 ncRNA [2],lowered in the L001-HDO6 administration group to a significant extent
same,mMalat1 ncRNA expression level in the liver,mouse Malat1 ncRNA [2],lowered in the L001-HDO6 administration group to a significant extent
same,Tm,[3],64 °C
same,fluorescence Alexa-488 in the glomerulus,"[4]; 6, 24, or 72 hours after single intravenous administration",no fluorescence was observed
same,fluorescence Alexa-488 in kidney tubular cells,[4]; [6],observed
same,fluorescence Alexa-488 in the glomerulus,[4]; [6],slightly observed
same,fluorescence Alexa-488 in kidney tubular cells,[4]; 6 hours after single intravenous administration,intensified
same,fluorescence Alexa-488 in kidney tubular cells,[4]; 24 hours after single intravenous administration,maximum fluorescence was observed
same,fluorescence Alexa-488 in kidney tubular cells,[4]; 72 hours after single intravenous administration,still observed in many kidney tubules
AVSEHQLLHDKGKSIQDLRRRELLEKLLAKLHKA (not fully specified (residue 33)) [L001-ASO],IC50 of lowering Malat1 ncRNA expression level in the mPth1R-stably expressing cell line,[5],1.25 nM
B1,IC50 of lowering Malat1 ncRNA expression level in the mPth1R-stably expressing cell line,[5],121 nM
B2,IC50 of lowering Malat1 ncRNA expression level in the mPth1R-stably expressing cell line,[5],167 nM
SEHQLLHDKGKSIQDLRRRELLEKLLAKLHKA (not fully specified (residue 31)) [L003-HDO6],IC50 of lowering Malat1 ncRNA expression level in the mPth1R-stably expressing cell line,[5],88.9 nM
AVSEHQLLHDKGKSIQDLRRRELLEKLL[Aib]KLHTAK (not fully specified (residue 35); also: prints K at position 33) [L021-HDO6],IC50 of lowering Malat1 ncRNA expression level in the mPth1R-stably expressing cell line,[5],46.8 nM
